# Experimental data from patent US20250043302A1, “MUTATED HYDROXYPHENYLPYRUVATE DIOXYGENASE POLYPEPTIDE, AND CODING GENE AND USE THEREOF” (BEIJING DABEINONG BIOTECHNOLOGY CO., LTD., priority 2021, published 2025).
# Where a chain is given by its changes, count along the chain named. Names may count otherwise.
# B1: BnHPPDm-F372A-F383W-02: nucleotide sequence encoding Brassica napus HPPD with F372A+F383W; vector DBN11745 (nucleic acid)
# DNA: ATGGGACATGAAAACGCGGCAGTGTGTGAAACTCAACAACATGATGACGCCGCCTCCCCGGGGTTTAAACTTGTCGGGTTCTCAAAATTTGTTAGGAAGAATCCAAAGTCTGACAAGTTCAAGGTGAAACGCTTCCACCACATCGAGTTCTGGTGCGGGGATGCAACAAATGTTTCACGCCGCTTTTCATGGGGACTAGGAATGAGGTTTAGCGCAAAGAGTGATCTCTCCACTGGTAATATGGTTCATGCGAGCTACTTGCTCACATCTGGAGACCTGAGATTCCTCTTCACCGCACCATATTCTCCCTCCCTGTCAGCTGGTGAAGCTCAGCCTTCAGCAACTGCAAGTATCCCTTCGTTTGATCATGCATCGTGCAGGTCTTTCTTCAGTTCACATGGACTCGGCGTCAGAGCAGTAGCGATCGAAGTAGAGGATGCTGAATCAGCTTTCTCCATATCTGTCGCCAACGGCGCGGTGCCTTCTTCTCCACCAAACGTCTTGAATGGTGCTGTTACCATTGCTGAGGTGAAGCTGTACGGAGATGTTGTTTTAAGATATGTTTCATATTACAATGGGACCGTTTCTTTTCTTCCCGGCTTTGAATCTGTTGATGATACTTCTTCCTTCCCTCTTGATTATGGGATCAGGCGGCTGGACCACGCCGTCGGCAACGTGCCGGAGTTAGGTCCTGCTTTGACATATCTTGCCGGCTTCACTGGATTCCATCAATTTGCAGAGTTTACGGCTGACGACGTGGGGACCGCGGAGAGTGGGCTGAACTCAGCAGTCTTGGCCAACAATGATGAAATGGTGCTCCTCCCCATCAATGAACCTGTGCATGGAACAAAGAGAAAGTCGCAGATTCAAACATTTTTAGAGCACAATGAGGGAGCTGGGCTACAGCACCTCGCATTGATGTCAGAAGATATTTTTCGAACGTTGAGGGAGATGCGGAAACGATCTGGTGTAGGCGGCTTTGACTTCATGCCATCCCCTCCGCCAACCTACTACAAGAACCTGAAGAAGAGGGTTGGAGACGTCCTTTCCGAGGAGCAAATTGAAGAATGTGAGGAGCTTGGAATTCTGGTGGACAGAGATGATCAAGGAACACTACTTCAGATCGCCACAAAACCATTGGGCGACAGGCCAACGATATGGATTGAGATCATTCAGCGCGTTGGATGCATGAAGCGTGATGAGGAAGGGAAGGTCTACCAGAGTGGCGGTTGTGGTGGATTTGGAAAAGGAAATTTTTCTGAGCTGTTCAAAAGCATAGAAGAGTATGAGAAAACATTGGAGGCCAAGCAGCTTGTTGGTTGA
# modifications: BnHPPDm-F372A-F383W-02 Nucleotide Sequence
# notes: vector DBN11745
# B2: BnHPPDm-F383W-02: nucleotide sequence encoding Brassica napus HPPD with F383W; vector DBN11744 (nucleic acid)
# DNA: B1 DNA with G1126T, C1127T
# modifications: BnHPPDm-F383W-02 Nucleotide Sequence
# notes: vector DBN11744
# B3: BnHPPDm-F372A-02: nucleotide sequence encoding Brassica napus HPPD with F372A; vector DBN11743 (nucleic acid)
# DNA: B1 DNA with G1160T, G1161C
# modifications: BnHPPDm-F372A-02 Nucleotide Sequence
# notes: vector DBN11743
# Tested on: Arabidopsis thaliana T1 plants
# Assay: Mesotrione tolerance of transgenic Arabidopsis thaliana T1 plants (spray, bleached leaf area grade, damage score)
# Type: in vivo
# Set-up: Scores: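 damage score 0-100 computed as Σ(N×S)/(T×M)×100 over grades 0-3 with higher meaning more damage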
# Settings: mesotrione 52.5 g ai/ha; Arabidopsis thaliana T1 plants
# How it was run: (§1)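 Damage was assessed by bleaching grade (0 none; 1 <50%; 2 >50%; 3 100% of leaf area) one week after spraying. Sprays on 18-day-old T1 and wild-type plants used field-rate multiples: topramezone 25–200, isoxaflutole 35–280, mesotrione 52.5–420 g ai/ha.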
Molecule,Resistance evaluation,Scores
B1,Moderately,31
B2,Non-resistant,100
B3,Poorly resistant,63

# Same assay, conditions: mesotrione 52.5 g ai/ha; Arabidopsis thaliana T1 plants; 16 plants
Molecule,Grade 0 (classification and statistics of the grade of pesticide damage; number of plants),Grade 1 (classification and statistics of the grade of pesticide damage; number of plants),Grade 2 (classification and statistics of the grade of pesticide damage; number of plants),Grade 3 (classification and statistics of the grade of pesticide damage; number of plants)
B1,5,8,2,1
B2,0,0,0,16
B3,0,4,10,2

# Same assay, conditions: mesotrione 105 g ai/ha; Arabidopsis thaliana T1 plants
Molecule,Resistance evaluation,Scores
B1,Poorly resistant,40
B2,Non-resistant,100
B3,Non-resistant,100

# Same assay, conditions: mesotrione 105 g ai/ha; Arabidopsis thaliana T1 plants; 16 plants
Molecule,Grade 0 (classification and statistics of the grade of pesticide damage; number of plants),Grade 1 (classification and statistics of the grade of pesticide damage; number of plants),Grade 2 (classification and statistics of the grade of pesticide damage; number of plants),Grade 3 (classification and statistics of the grade of pesticide damage; number of plants)
B1,0,13,3,0
B2,0,0,0,16
B3,0,0,0,16

# Tested on: Arabidopsis thaliana T1 plants
# Assay: Isoxaflutole tolerance of transgenic Arabidopsis thaliana T1 plants (spray, bleached leaf area grade, damage score)
# Type: in vivo
# Set-up: Scores (pesticide damage): scale not given here
# Settings: isoxaflutole 35 g ai/ha (0.5x field concentration), spray, Arabidopsis thaliana T1 plants
# How it was run: as §1
Molecule,Resistance evaluation,Scores (pesticide damage)
B1,Moderately,29
B2,Non-resistant,94
B3,Poorly,52

# Same assay, conditions: isoxaflutole 35 g ai/ha (0.5x field concentration), spray, Arabidopsis thaliana T1 plants, 16 plants
Molecule,Classification and statistics of the grade of pesticide damage: Grade 0 (number of plants),Classification and statistics of the grade of pesticide damage: Grade 1 (number of plants),Classification and statistics of the grade of pesticide damage: Grade 2 (number of plants),Classification and statistics of the grade of pesticide damage: Grade 3 (number of plants)
B1,5,8,3,0
B2,0,0,3,13
B3,0,7,9,0

# Same assay, conditions: isoxaflutole 70 g ai/ha (1x field concentration), spray, Arabidopsis thaliana T1 plants
Molecule,Resistance evaluation,Scores (pesticide damage)
B1,Moderately,33
B2,Non-resistant,100
B3,Non-resistant,100

# Same assay, conditions: isoxaflutole 70 g ai/ha (1x field concentration), spray, Arabidopsis thaliana T1 plants, 16 plants
Molecule,Classification and statistics of the grade of pesticide damage: Grade 0 (number of plants),Classification and statistics of the grade of pesticide damage: Grade 1 (number of plants),Classification and statistics of the grade of pesticide damage: Grade 2 (number of plants),Classification and statistics of the grade of pesticide damage: Grade 3 (number of plants)
B1,3,10,3,0
B2,0,0,0,16
B3,0,0,0,16

# Tested on: Arabidopsis thaliana T1 plants
# Assay: Topramezone tolerance of transgenic Arabidopsis thaliana T1 plants (spray, bleached leaf area grade, damage score)
# Type: in vivo
# Settings: number of plants; topramezone 25 g ai/ha (1×), 7 DAT; Table 4
# How it was run: as §1
Molecule,Classification and statistics of the grade of pesticide damage: Grade 0,Classification and statistics of the grade of pesticide damage: Grade 1,Classification and statistics of the grade of pesticide damage: Grade 2,Classification and statistics of the grade of pesticide damage: Grade 3
B1,6,6,4,0
B2,0,3,9,4
B3,0,4,12,0

# Same assay, conditions: number of plants; topramezone 100 g ai/ha (4×), 7 DAT; Table 4
Molecule,Classification and statistics of the grade of pesticide damage: Grade 0,Classification and statistics of the grade of pesticide damage: Grade 1,Classification and statistics of the grade of pesticide damage: Grade 2,Classification and statistics of the grade of pesticide damage: Grade 3
B1,3,8,5,0
B2,0,0,0,16
B3,0,0,0,16

# Same assay, conditions: pesticide damage score 0-100; topramezone 25 g ai/ha (1×), 7 DAT; Table 4
row,Molecule,Scores
1,B1,29
2,B2,69
3,B3,58

# Same assay, conditions: pesticide damage score 0-100; topramezone 100 g ai/ha (4×), 7 DAT; Table 4
row,Molecule,Scores
1,B1,38
2,B2,100
3,B3,100

# Same assay, conditions: topramezone 25 g ai/ha (1×), 7 DAT; Table 4
row,Molecule,Resistance evaluation
1,B1,moderately
2,B2,non-resistant (non-resistant plants (scores 68-100))
3,B3,poorly

# Same assay, conditions: topramezone 100 g ai/ha (4×), 7 DAT; Table 4
row,Molecule,Resistance evaluation
1,B1,poorly
2,B2,non-resistant (non-resistant plants (scores 68-100))
3,B3,non-resistant (non-resistant plants (scores 68-100))
